Data on one molecule can be found in patent US20250197491A1 (MACOMICS, published 2025).

One experiment concerns the target T1, Human full length LILRB2 (human, UniProt Q8N423 22-597).
T1 construct: Over-expressed on HEK293 cells for flow cytometry; Also used here as the parent protein of the D3-D4 peptide microarrays; also called LILRB2 on HEK293 cells
As to the kind of experiment: flow cytometry on HEK293 cells overexpressing human LILRB2. As to the method:
FIG. 7. Binding to LILRB2 over-expressing cell line. HEK293 cells overexpressing full length human LILRB2 (SEQ ID NO: 46) were incubated with various concentrations of test antibodies (Antibody 1 to 5 and Reference Antibody 1).
Binding to human LILRB1 and LILRB2. HEK293 cells stably expressing full length human LILRB1 (SEQ ID NO: 45), or LILRB2 (SEQ ID NO: 46), or wild-type cells were detached from the culture plates using methods known in art. The cells were then incubated with anti-LILRB1 Ab clones at different concentrations followed by incubation with fluorescently labelled secondary antibodies. The extent of antibody binding to cells stably expressing full-length human LILRB1, or full-length human LILRB2, was determined by flow cytometry and quantified using geometric mean of the fluorescent signal (GEOM).
For orientation: In flow cytometry, cells or beads pass a laser one at a time.

The target of another experiment is T2, Human full length LILRB1 (human, UniProt Q8NHL6 24-650).
T2 construct: Over-expressed on HEK293 cells for flow cytometry; also called LILRB1 on HEK293 cells; cell membrane embedded LILRB1
T2 sequence (Q8NHL6 24-650 limits assumed): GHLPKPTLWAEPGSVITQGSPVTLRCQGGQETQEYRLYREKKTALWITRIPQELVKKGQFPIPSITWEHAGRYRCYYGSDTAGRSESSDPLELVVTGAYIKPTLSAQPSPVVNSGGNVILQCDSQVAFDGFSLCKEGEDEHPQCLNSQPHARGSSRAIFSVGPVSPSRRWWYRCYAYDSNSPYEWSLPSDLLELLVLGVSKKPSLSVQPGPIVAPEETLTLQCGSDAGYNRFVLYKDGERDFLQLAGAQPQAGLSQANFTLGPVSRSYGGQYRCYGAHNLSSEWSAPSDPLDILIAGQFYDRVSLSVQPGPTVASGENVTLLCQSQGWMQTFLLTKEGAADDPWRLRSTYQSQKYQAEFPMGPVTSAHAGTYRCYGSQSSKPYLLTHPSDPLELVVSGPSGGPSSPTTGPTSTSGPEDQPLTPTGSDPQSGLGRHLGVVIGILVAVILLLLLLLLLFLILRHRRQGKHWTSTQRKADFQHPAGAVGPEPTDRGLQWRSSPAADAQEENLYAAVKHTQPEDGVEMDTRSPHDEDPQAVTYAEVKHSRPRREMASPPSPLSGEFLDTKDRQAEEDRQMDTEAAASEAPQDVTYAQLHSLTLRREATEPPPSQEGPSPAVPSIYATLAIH
As to the kind of experiment: flow cytometry on HEK293 cells overexpressing human LILRB1. As to the method: FIG. 5. Binding to LILRB1 over-expressing cell line. HEK293 cells overexpressing full length human LILRB1 (SEQ ID NO: 45) were incubated with various concentrations of test antibodies (Antibody 1 to 5 and Reference Ab 1). The bound antibodies were detected using PE-labeled secondary antibodies and analyzed by flow cytometry. A) Plot showing mean fluorescence intensity (MFI), B) EC50 values calculated using data from panel A.
Binding to human LILRB1 and LILRB2. HEK293 cells stably expressing full length human LILRB1 (SEQ ID NO: 45), or LILRB2 (SEQ ID NO: 46), or wild-type cells were detached from the culture plates using methods known in art. […] The extent of antibody binding to cells stably expressing full-length human LILRB1, or full-length human LILRB2, was determined by flow cytometry and quantified using geometric mean of the fluorescent signal (GEOM).
The ability of selected anti-LILRB-1 antibodies to bind to the LILRB1 receptor in its native context of the cell membrane was investigated by flow cytometry. HEK293 cells over-expressing full length human LILRB1 (SEQ ID NO: 45) were incubated with the increasing amounts of the antibodies and the cell bound antibodies were detected using PE-labelled secondary antibodies using a flow-cytometer.

Experiment [1] deals with T3, Human LILRB1 (D1-D2) fused to mouse IgG2a Fc (human).
T3 construct: also called truncated (D1-D2) version of the LILRB1 ecto-domain
T3 sequence (chain, as listed by the source limits assumed): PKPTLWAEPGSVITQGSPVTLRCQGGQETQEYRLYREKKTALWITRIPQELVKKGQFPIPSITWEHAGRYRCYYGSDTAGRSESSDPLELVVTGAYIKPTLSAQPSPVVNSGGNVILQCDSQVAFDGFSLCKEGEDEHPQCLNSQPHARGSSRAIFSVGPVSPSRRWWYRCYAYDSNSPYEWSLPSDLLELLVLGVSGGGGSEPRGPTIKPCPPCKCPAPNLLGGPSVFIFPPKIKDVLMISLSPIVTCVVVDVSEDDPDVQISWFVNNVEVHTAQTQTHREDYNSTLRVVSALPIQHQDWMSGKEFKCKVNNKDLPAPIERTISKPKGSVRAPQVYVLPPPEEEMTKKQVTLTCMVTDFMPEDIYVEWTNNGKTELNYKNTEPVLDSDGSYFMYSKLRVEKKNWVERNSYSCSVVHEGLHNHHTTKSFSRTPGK
In words: ELISA, antigen coated, 10 nM antibody. The text has this: (§1) FIG. 3. Mixed LILRB1 and LILRB2 expression in TAMs from melanoma cancer patients. Analysis of LILRB1 and LILRB2 detection in macrophages in pre- and post-anti-PD-1 and/or anti-CTLA-4 therapy treated melanoma patients (n=33) is shown using Smart-seq2 data from Sade-Feldman et al. https://pubmed.ncbi.nlm.nih.gov/30633907/FIG. 4. Binding to domains of human LILRB1. Plates were coated with recombinant full length LILRB1 ectodomain (SEQ ID NO: 41) or a protein comprising domain 1 and 2 of human LILRB1 protein (SEQ ID NO: 42), and then incubated with 10 nM Clones 1-5, Reference Ab 1, and Isotype control. The bound antibodies were detected using HRP-labeled secondary antibodies and the results were plotted on the graph as absorbance measured at 450 nm.
(§2) Binding to allelic forms of LILRB1. There are 4 major allelic variants of human LILRB1 protein ectodomain. The variants of LILRB1 were expressed as recombinant proteins comprising a modified LILRB1 ectodomain and mouse IgG2 Fc region (SEQ ID NO: 50 and 51) in suspension CHO cells, and purified by using techniques that were known in the art. These recombinant proteins were then used in the direct enzyme-linked immunosorbent assay (ELISA) to determine the antibodies potential to bind different allelic forms of LILRB1. In short, Maxisorp (Nunc) or similar immune-assay plates were coated with solutions of target proteins in PBS, at 4° C., overnight. Plates were then washed with PBS, blocked with 5% milk in PBS, and washed again. Test antibodies diluted in PBS were then added to the plates and incubated at room temperature for at least 1h. Plates were subsequently washed with PBS/0.05% Tween-20 (PBST) and incubated with a solution of horse radish peroxidase (HRP) labelled secondary antibodies at room temperature for at least 1 h. After washing with PBST and PBS, bound antibodies were detected using the 3,3′,5,5;-tetramethylbenzidine (TMB) chromogenic solution. After 5 to 10 minutes, the reaction was stopped with 1% sulphuric acid and absorbance read at 450 nm.
(§3) There are four major allelic variants within the ecto-domain of LILRB1 in human population [Human Molecular Genetics, 2005, Vol. 14, 2469-2480]; namely c.203T>C (L68P), c.277G>A (A93T), c.425T>C (I142T), and c.464G>T (S155I).
On the technique in general: In an ELISA, binding on a coated surface is turned into a signal by an enzyme label.

Experiment [2] addresses T4, human LILRB1 ectodomain fused to mIgG2a Fc (human).
T4 construct: also called human LILRB1-mIgG2a; full length LILRB1 ectodomain
As to the kind of experiment: ELISA, antigen coated, 10 nM antibody.
Text: as §1, §2, §3

T1 sequence (Q8N423 other isoform, or with tags, fused parts or gaps limits assumed): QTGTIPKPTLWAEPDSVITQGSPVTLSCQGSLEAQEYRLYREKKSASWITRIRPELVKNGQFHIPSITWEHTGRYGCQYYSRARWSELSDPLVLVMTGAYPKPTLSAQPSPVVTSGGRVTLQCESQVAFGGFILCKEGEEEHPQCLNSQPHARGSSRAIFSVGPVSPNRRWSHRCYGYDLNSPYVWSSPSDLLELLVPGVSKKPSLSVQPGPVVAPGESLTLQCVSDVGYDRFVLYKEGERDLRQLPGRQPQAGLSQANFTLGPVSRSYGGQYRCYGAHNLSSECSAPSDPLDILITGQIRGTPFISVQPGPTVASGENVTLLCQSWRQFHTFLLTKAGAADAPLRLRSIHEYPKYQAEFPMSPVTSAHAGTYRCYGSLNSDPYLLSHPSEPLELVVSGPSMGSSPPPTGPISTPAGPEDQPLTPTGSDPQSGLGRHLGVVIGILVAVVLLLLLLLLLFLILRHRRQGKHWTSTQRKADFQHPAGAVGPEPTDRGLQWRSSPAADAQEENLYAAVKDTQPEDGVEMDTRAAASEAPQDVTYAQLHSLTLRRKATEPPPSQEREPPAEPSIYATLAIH
T4 sequence (chain, as listed by the source limits assumed): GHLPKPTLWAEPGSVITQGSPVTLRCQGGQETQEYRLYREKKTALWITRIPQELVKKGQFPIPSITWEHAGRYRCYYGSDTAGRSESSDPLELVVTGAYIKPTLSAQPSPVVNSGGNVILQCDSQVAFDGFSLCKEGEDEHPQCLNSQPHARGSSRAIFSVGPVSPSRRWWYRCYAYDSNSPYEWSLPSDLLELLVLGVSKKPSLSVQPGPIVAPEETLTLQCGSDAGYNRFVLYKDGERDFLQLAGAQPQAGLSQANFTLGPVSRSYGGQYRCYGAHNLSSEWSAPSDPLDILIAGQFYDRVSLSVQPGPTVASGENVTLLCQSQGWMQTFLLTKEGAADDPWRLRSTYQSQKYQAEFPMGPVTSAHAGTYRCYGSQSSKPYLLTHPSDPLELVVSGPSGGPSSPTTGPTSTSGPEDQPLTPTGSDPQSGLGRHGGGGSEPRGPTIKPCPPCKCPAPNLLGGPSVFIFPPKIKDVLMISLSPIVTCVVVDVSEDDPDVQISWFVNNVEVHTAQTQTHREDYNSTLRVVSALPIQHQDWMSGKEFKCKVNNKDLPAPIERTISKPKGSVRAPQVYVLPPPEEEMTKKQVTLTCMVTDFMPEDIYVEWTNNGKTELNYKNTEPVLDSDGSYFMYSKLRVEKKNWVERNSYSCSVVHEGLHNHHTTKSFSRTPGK

B1: Reference Antibody 1 (anti-human LILRB1 Ab) (antibody, V domains shown)
VH: DVQLQGSGPGLVKPSETLSLTCSVTGYSITSGYYWNWIRQFPGKKLEWMGYISYDGSNNYNPSLKNRITISRDTSKNQFSLKLNSVTAADTATYYCAHGYSYYYAMDAWGQGTSVTVSS
VL: DIQMTQSPSSLSASVGDRVTITCRTSQDISNYLNWYQQKPGKAVKLLISYTSRLHSGVPSRFSGSGSGTDYTLTISSLQPEDFATYYCQQGNTLPTFGQGTKLEIK
Broadly, the EC50 is the concentration needed to bring the measured effect to its halfway point. High values mean weaker potency, low ones greater potency. On to B1, for which the values for the binding result (in the experiment with Human full length LILRB2; in experiment [1]; in experiment [2]) were “no binding”, “binds” and “binds”, respectively. The same molecule gave a half-maximal effective concentration (EC50) in the experiment with Human full length LILRB1 of 0.73 nM.
